Earlier results, collected in paper PMC9558312.

Legend:
Experiment in all cases: NMR
Asp42 = Asp42 (UniProt position 63, KRGCADNCPKN)
Asp59 = Asp59 (UniProt position 80, VCCSTDKCN--)
Glu17 = Glu17 (UniProt position 38, YKTCPEGKNLC)
His4 = His4 (UniProt position 25, YTLKCHNTQLP)
Asp101 = Asp101 (UniProt position 119, KKIVSDGNGMN)
Asp119 = Asp119 (UniProt position 137, RCKGTDVQAWI)
Asp18 = Asp18 (UniProt position 36, KRHGLDNYRGY)
Asp48 = Asp48 (UniProt position 66, TNRNTDGSTDY)
Asp52 = Asp52 (UniProt position 70, TDGSTDYGILQ)
Asp66 = Asp66 (UniProt position 84, RWWCNDGRTPG)
Asp87 = Asp87 (UniProt position 105, ALLSSDITASV)
Glu35 = Glu35 (UniProt position 53, CAAKFESNFNT)
Glu7 = Glu7 (UniProt position 25, VFGRCELAAAM)

Substance	pKa (Asp42)	pKa (Asp59)	pKa (Glu17)	pKa (His4)	pKa (Asp101)	pKa (Asp119)	pKa (Asp18)	pKa (Asp48)	pKa (Asp52)	pKa (Asp66)	pKa (Asp87)	pKa (Glu35)	pKa (Glu7)
Cardiotoxin V (cytotoxin 5, CTX A5) (Naja naja atra (Naja atra, Taiwan cobra))	3.2	<2	4	5.5									
Hen egg white lysozyme (HEWL, lysozyme C) (Gallus gallus)					4.5	3.5	2.8	1.4	3.6	1.2	2.2	6.1	2.6
